Substitutions are numbered along the chain they refer to. Names and notes keep the numbering of the source.
T1: BMP-7 (UniProt P18075 293-431)
T1 sequence (looked up): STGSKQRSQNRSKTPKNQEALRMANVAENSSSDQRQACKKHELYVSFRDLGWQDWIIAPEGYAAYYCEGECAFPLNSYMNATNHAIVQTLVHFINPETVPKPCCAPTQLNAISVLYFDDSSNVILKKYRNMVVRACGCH

B1: Chimera BAB: BMPR-II ECD with the ActR-IIB A-loop (domain or fragment)
chain: ASQNQERLCAFKDPYQQDLGIGESRISHENGTILCSKGSTCYGLWEKSKGDINLVKQGCWDDFNCYDRQCVVTTTPPSIQNGTYRFCCCSTDLCNVNFTENFPPPDTTPLSPPHSFNRDET
B2: human recombinant BMPR-II ECD, wild type (domain or fragment, UniProt Q13873 26-150, looked up)
chain: ASQNQERLCAFKDPYQQDLGIGESRISHENGTILCSKGSTCYGLWEKSKGDINLVKQGCWSHIGDPQECHYEECVVTTTPPSIQNGTYRFCCCSTDLCNVNFTENFPPPDTTPLSPPHSFNRDET
B3: GDF-5 (ligand, UniProt P43026 382-501, looked up)
chain: APLATRQGKRPSKNLKARCSRKALHVNFKDMGWDDWIIAPLEYEAFHCEGLCEFPLRSHLEPTNHAVIQTLMNSMDPESTPPTCCVPTRLSPISILFIDSANNVVYKQYEDMVVESCGCR
B4: BMPR-II ECD S107P (domain or fragment, human, UniProt Q13873 26-150, looked up)
chain: B2 chain with S82P
B5: BMPR-II ECD Y40Q (domain or fragment, human, UniProt Q13873 26-150, looked up)
chain: B2 chain with Y15Q
B6: BMPR-II ECD Y40P (domain or fragment, human, UniProt Q13873 26-150, looked up)
chain: B2 chain with Y15P
B7: BMPR-II ECD G47N (domain or fragment, human, UniProt Q13873 26-150, looked up)
chain: B2 chain with G22N
B8: BMPR-II ECD Y40R (domain or fragment, human, UniProt Q13873 26-150, looked up)
chain: B2 chain with Y15R
B9: BMPR-II ECD Y40G (domain or fragment, human, UniProt Q13873 26-150, looked up)
chain: B2 chain with Y15G

What was measured:
Assay in all cases: SPR
[1] = biological target: Activin (UniProt P08476 311-426)
[2] = biological target: T1, BMP-7
[3] = biological target: B3
[4] = biological target: B8
[5] = biological target: B4
[6] = biological target: B7
[7] = biological target: B5
[8] = biological target: B9
[9] = biological target: B2
[10] = biological target: B6

Binder: B1
Kd [1]: 5 µM
Kd [2]: 59 µM
Kd [3]: 197 µM

Binder: B2
Kd [2]: 135 µM

Binder: B3
Kd [4]: 117 µM
Kd [5]: 90 µM
Kd [6]: 136 µM
Kd [7]: 175 µM
Kd [8]: 123 µM
Kd [9]: 221 µM
Kd [10]: 200 µM

Binder: B4
Kd [2]: 43 µM

Binder: B5
Kd [2]: 129 µM

Binder: B6
Kd [2]: 157 µM

Binder: B7
Kd [2]: 92 µM

Binder: B8
Kd [2]: 117 µM

Binder: B9
Kd [2]: 138 µM

From publication PMC3481545 (Biochemistry, 2012)
